Results as given in patent US20240109955A1.
Substitutions are numbered along the chain they refer to.

Legend:
Test in all cases: cell-based or functional assay
[1] = biological target: SARS-CoV-2 spike protein, Omicron variant BA.4/5 (SARS-CoV-2)
[2] = biological target: SARS-CoV-2 spike protein, Omicron variant BQ.1 (SARS-CoV-2)
[3] = biological target: SARS-CoV-2 spike protein, Omicron variant BA.2.75.2 (SARS-CoV-2)
[4] = biological target: SARS-CoV-2 spike protein, Omicron variant XBB (SARS-CoV-2)
[5] = biological target: SARS-CoV-2 spike protein, Omicron variant BQ.1.1 (SARS-CoV-2)
[6] = biological target: SARS-CoV-2 Delta variant spike protein (SARS-CoV-2)
[7] = biological target: SARS-CoV-2 Omicron variant B.1.1.529 spike protein (SARS-CoV-2)
[8] = biological target: SARS-CoV-2 Omicron variant XBB spike protein (SARS-CoV-2)
[9] = biological target: SARS-CoV-2 Omicron variant BQ.1 spike protein (SARS-CoV-2)
[10] = biological target: SARS-CoV-2 Omicron variant BQ.1.1 spike protein (SARS-CoV-2)
[11] = biological target: SARS-CoV-2 Omicron variant BA.4/5 spike protein (SARS-CoV-2)
[12] = biological target: SARS-CoV-2 Omicron variant BA.2.75.2 spike protein (SARS-CoV-2)

B1: MX1070 (protein)
chain 1: QTVVTQEPSFSVSPGGTVTLTCGLSSGSVSTAYFPSWYQQTPGQAPRTLIYGTNTRSSGVPDRFSGSILGNKAALTITGAQADDESDYYCVLYMGRGIVVFGGGTKLTVLGGSSGEIVLTQSPGTLSLSPGETATLSCRASQSFSSDLAWYQQKPGQAPRLLIYGASSRATGIPDRFSGSGSGTDFTLTISRLEPADFAVYYCQQYGSSPPVTFGGGTKVEIKGGGGSGGSGSGGGGSASGSGEVQLVESGGGLIQPGGSLRLSCAASGVIVSYNYMNWVRQAPGKGLEWVSVIYSGGSTFYADSVRGRFTISRDNSKNTLYLQMNSLRAEDTAVYYCARDLGPAGAFDIWGLGTMVTVSSGGSSGQVQLVESGGGVVQPGRSLRLSCAASGFTLSSYGMHWVRQAPGKGLEWVAVISYDGSNKYYVDSVKGRFTISRDNSKNTLYLQMNSLRAEDTAVYYCRWAYWELLPDYYYGMDVWGQGTTVTVSSASGGSGDKTHTCPPCPAPELLGGPSVFLFPPKPKDTLMISRTPEVTCVVVDVSHEDPEVKFNWYVDGVEVHNAKTKPREEQYNSYVVSVLTVLHQDWLNGKEYKCKVSNKALPAPIEKTISKAKGQPREPQVYTLPPCRDELTKNQVSLWCLVKGFYPSDIAVEWESNGQPENNYKTTPPVLDSDGSFFKKLTVDKSRWQQGNVFSCSVLHEALHSHYTQKSLSLSPG
chain 2: DTVMTQSPLSLPVTPGEPASISCRSSQSLLNSNGYNYLDWYVQKPGQSPQLLIYLGSNRASGVPDRFSGSGSGTDFTLKISRVEAEDVGVYYCMQPLQTPLFTFGPGTKVEIKGGSSGEIVLTQSPGTLSLSPGETATLSCRASQSFSSDLAWYQQKPGQAPRLLIYGASSRATGIPDRFSGSGSGTDFTLTISRLEPADFAVYYCQQYGSSPPVTFGGGTKVEIKGGGGSGGSGSGGGGSASGSGEVQLVESGGGLIQPGGSLRLSCAASGVIVSYNYMNWVRQAPGKGLEWVSVIYSGGSTFYADSVRGRFTISRDNSKNTLYLQMNSLRAEDTAVYYCARDLGPAGAFDIWGLGTMVTVSSGGSSGQVTLRESGPALVKPTQTLTLTCTFSGFSLSTRGVCVSWIRQPPGKALEWLAFIDWDDDKYYNTSLKTRLTISKDTSKNQVVLTMTNVHPVDTATYYCARISSHHGSSWCTTFDYWGQGALVTVSAASGGSGDKTHTCPPCPAPELLGGPSVFLFPPKPKDTLMISRTPEVTCVVVDVSHEDPEVKFNWYVDGVEVHNAKTKPREEQYNSYVVSVLTVLHQDWLNGKEYKCKVSNKALPAPIEKTISKAKGQPREPQVCTLPPSRDELTKNQVSLSCAVKGFYPSDIAVEWESNGQPENNYKTTPPVLDSDGSFFLVSKLTVDKSRWQQGNVFSCSVLHEALHSHYTQKSLSLSPG
How did the IC50, pseudovirus neutralization [1] turn out when B1 was run?
The IC50, pseudovirus neutralization was 2.49 ng/mL.

What about the IC80, pseudovirus neutralization [1] of the same binder?
Its IC80, pseudovirus neutralization is 3.58 ng/mL.

What about the IC50, pseudovirus neutralization [2] of the same binder?
The IC50, pseudovirus neutralization was 4.64 ng/mL.

And the IC80, pseudovirus neutralization [2]?
Its IC80, pseudovirus neutralization is 9.16 ng/mL.

And the IC50, pseudovirus neutralization [3]?
The IC50, pseudovirus neutralization was 2.4 ng/mL.

And the IC80, pseudovirus neutralization [3]?
The IC80, pseudovirus neutralization was 4.16 ng/mL.

What about the IC50, pseudovirus neutralization [4] of the same binder?
The IC50, pseudovirus neutralization was 2.9 ng/mL.

And the IC80, pseudovirus neutralization [4]?
The IC80, pseudovirus neutralization was 9.71 ng/mL.

What about the IC50, pseudovirus neutralization [5] of the same binder?
The IC50, pseudovirus neutralization was 4.06 ng/mL.

What about the IC80, pseudovirus neutralization [5] of the same binder?
The IC80, pseudovirus neutralization was 11 ng/mL.

B2: MX1041 (bispecific antibody)
chain: B1 chain 1 with C628S, W640T
With B2 as the binder, how does the IC50, pseudovirus neutralization [6] read?
The IC50, pseudovirus neutralization was 29.1 ng/mL.

And the IC80, pseudovirus neutralization [6]?
Its IC80, pseudovirus neutralization is 48.5 ng/mL.

What about the IC50, pseudovirus neutralization [7] of the same binder?
The IC50, pseudovirus neutralization was 4.14 ng/mL.

And the IC80, pseudovirus neutralization [7]?
The IC80, pseudovirus neutralization was 8.81 ng/mL.

B3: MX1028 (bispecific antibody)
chain 1: EIVMTQSPAILSVSPGERATLSCRASQSVAINLAWYQQKPGQAPRLLIYAASSRATGIPGRFSGSGSETNFTLTISSLQSGDFAVYYCQQYITWPPSYTFGQGTKLEIKGGSSGDTVMTQSPLSLPVTPGEPASISCRSSQSLLNSNGYNYLDWYVQKPGQSPQLLIYLGSNRASGVPDRFSGSGSGTDFTLKISRVEAEDVGVYYCMQPLQTPLFTFGPGTKVEIKGGGGSGGSGSGGGGSASGSGQVTLRESGPALVKPTQTLTLTCTFSGFSLSTRGVCVSWIRQPPGKALEWLAFIDWDDDKYYNTSLKTRLTISKDTSKNQVVLTMTNVHPVDTATYYCARISSHHGSSWCTTFDYWGQGALVTVSAGGSSGEVQLVESGGALIQPGGSLRLSCAASGIIVSANYMSWVRQAPGKGLEWVSVIYSGGSTFYADSVKGRFTISRDNSKNTLYLEMNSLRAEDTAVYYCARDAPILGVSDWGQGTLVTVSSASGGSGDKTHTCPPCPAPELLGGPSVFLFPPKPKDTLMISRTPEVTCVVVDVSHEDPEVKFNWYVDGVEVHNAKTKPREEQYNSYVVSVLTVLHQDWLNGKEYKCKVSNKALPAPIEKTISKAKGQPREPQVYTLPPCRDELTKNQVSLWCLVKGFYPSDIAVEWESNGQPENNYKTTPPVLDSDGSFFKKLTVDKSRWQQGNVFSCSVLHEALHSHYTQKSLSLSPG
chain 2: DTVMTQSPLSLPVTPGEPASISCRSSQSLLNSNGYNYLDWYVQKPGQSPQLLIYLGSNRASGVPDRFSGSGSGTDFTLKISRVEAEDVGVYYCMQPLQTPLFTFGPGTKVEIKGGSSGEIVMTQSPAILSVSPGERATLSCRASQSVAINLAWYQQKPGQAPRLLIYAASSRATGIPGRFSGSGSETNFTLTISSLQSGDFAVYYCQQYITWPPSYTFGQGTKLEIKGGGGSGGSGSGGGGSASGSGEVQLVESGGALIQPGGSLRLSCAASGIIVSANYMSWVRQAPGKGLEWVSVIYSGGSTFYADSVKGRFTISRDNSKNTLYLEMNSLRAEDTAVYYCARDAPILGVSDWGQGTLVTVSSGGSSGQVTLRESGPALVKPTQTLTLTCTFSGFSLSTRGVCVSWIRQPPGKALEWLAFIDWDDDKYYNTSLKTRLTISKDTSKNQVVLTMTNVHPVDTATYYCARISSHHGSSWCTTFDYWGQGALVTVSAASGGSGDKTHTCPPCPAPELLGGPSVFLFPPKPKDTLMISRTPEVTCVVVDVSHEDPEVKFNWYVDGVEVHNAKTKPREEQYNSYVVSVLTVLHQDWLNGKEYKCKVSNKALPAPIEKTISKAKGQPREPQVCTLPPSRDELTKNQVSLSCAVKGFYPSDIAVEWESNGQPENNYKTTPPVLDSDGSFFLVSKLTVDKSRWQQGNVFSCSVLHEALHSHYTQKSLSLSPG
Which IC50, pseudovirus neutralization [8] does the source give for B3 here?
The IC50, pseudovirus neutralization was 6.77 ng/mL.

And the IC80, pseudovirus neutralization [8]?
Its IC80, pseudovirus neutralization is 16.1 ng/mL.

What about the IC50, pseudovirus neutralization [9] of the same binder?
The IC50, pseudovirus neutralization was 10.5 ng/mL.

And the IC80, pseudovirus neutralization [9]?
The IC80, pseudovirus neutralization was 25.5 ng/mL.

What about the IC50, pseudovirus neutralization [10] of the same binder?
The IC50, pseudovirus neutralization was 4.2 ng/mL.

What about the IC80, pseudovirus neutralization [10] of the same binder?
The IC80, pseudovirus neutralization was 14.4 ng/mL.

And the IC50, pseudovirus neutralization [11]?
Its IC50, pseudovirus neutralization is 1.81 ng/mL.

What about the IC80, pseudovirus neutralization [11] of the same binder?
Its IC80, pseudovirus neutralization is 3.73 ng/mL.

And the IC50, pseudovirus neutralization [12]?
The IC50, pseudovirus neutralization was 2.43 ng/mL.

What about the IC80, pseudovirus neutralization [12] of the same binder?
The IC80, pseudovirus neutralization was 7.4 ng/mL.

B4: E8 + B8 (protein)
VH 1: QVTLRESGPALVKPTQTLTLTCTFSGFSLSTRGVCVSWIRQPPGKALEWLAFIDWDDDKYYNTSLKTRLTISKDTSKNQVVLTMTNVHPVDTATYYCARISSHHGSSWCTTFDYWGQGALVTVSA
VL 1: DTVMTQSPLSLPVTPGEPASISCRSSQSLLNSNGYNYLDWYVQKPGQSPQLLIYLGSNRASGVPDRFSGSGSGTDFTLKISRVEAEDVGVYYCMQPLQTPLFTFGPGTKVEIK
VH 2: EVQLVESGGALIQPGGSLRLSCAASGIIVSANYMSWVRQAPGKGLEWVSVIYSGGSTFYADSVKGRFTISRDNSKNTLYLEMNSLRAEDTAVYYCARDAPILGVSDWGQGTLVTVSS
VL 2: EIVMTQSPAILSVSPGERATLSCRASQSVAINLAWYQQKPGQAPRLLIYAASSRATGIPGRFSGSGSETNFTLTISSLQSGDFAVYYCQQYITWPPSYTFGQGTKLEIK
For B4, which IC50, pseudovirus neutralization [8] is on record?
The IC50, pseudovirus neutralization was 9.96 ng/mL.

And the IC80, pseudovirus neutralization [8]?
The IC80, pseudovirus neutralization was 18.1 ng/mL.

And the IC50, pseudovirus neutralization [9]?
Its IC50, pseudovirus neutralization is 11 ng/mL.

And the IC80, pseudovirus neutralization [9]?
Its IC80, pseudovirus neutralization is 30.5 ng/mL.

And the IC50, pseudovirus neutralization [10]?
The IC50, pseudovirus neutralization was 9.55 ng/mL.

What about the IC80, pseudovirus neutralization [10] of the same binder?
The IC80, pseudovirus neutralization was 13.2 ng/mL.
